We go through nine molecules from patent US20020192789A1 (published 2002).

Positions count from the first letter of the chain named.

First the molecules themselves.
B1: phage isolate 5-A11 display polypeptide (other)
chain: AEWHPQFSSPSASRPSEGPCHPQFPRCYIENLDEFRPGGSGGDLNDVYSERMAMWGAQSDGGGSTEHAEGGSADPSYIEGRIVGSA
notes: The printed 13-mer is used instead; also called 05-A11; not shown: M13 phage gene III protein; the display polypeptide is fused to its N-terminus
B2: phage isolate 5-B05 display polypeptide (other)
chain: B1 chain with D43S, N45D, V47D, Y48R, S49T, E50V, R51S, M52P, A53K, M54F
notes: The printed 13-mer is used instead; also called 05-B05; not shown: M13 phage gene III protein; the display polypeptide is fused to its N-terminus
B3: phage isolate 5-F08 display polypeptide (unselected control) (other)
chain: AEWHPQFSSPSASRPSEGPCHPQFPRCYIENLDEFRPGGSGGAVLSNVMHSDDWTGAQSDGGGSTEHAEGGSADPSYIEGRIVGSA
notes: not shown: M13 phage gene III protein; the display polypeptide is fused to its N-terminus
B4: phage isolate 5-A01 display polypeptide (other)
chain: AEWHPQFSSPSASRPSEGPCHPQFPRCYIENLDEFRPGGSGGDRMYQLDKTGFMIGAQSDGGGSTEHAEGGSADPSYIEGRIVGSA
notes: as for B3
B5: phage isolate 5-A08 display polypeptide (other)
chain: B1 chain with L44M, N45F, D46S, V47E, Y48E, S49D, E50R, R51M, A53Q, W55Q
notes: The printed 13-mer is used instead; also called 05-A08; not shown: M13 phage gene III protein; the display polypeptide is fused to its N-terminus
B6: phage isolate 5-H11 display polypeptide (other)
chain: AEWHPQFSSPSASRPSEGPCHPQFPRCYIENLDEFRPGGSGGMGDDDDKIYVYKTGAQSDGGGSTEHAEGGSADPSYIEGRIVGSA
notes: The printed 13-mer is used instead; also called 05-H11; not shown: M13 phage gene III protein; the display polypeptide is fused to its N-terminus
B7: GDDDDKIYV (positive control test peptide) (peptide)
peptide: GDDDDKIYV
B8: DINDDRSLF (peptide)
peptide: DINDDRSLF
B9: GNYTDRMFI (peptide)
peptide: GNYTDRMFI

For one test, the target named is T1, streptavidin (UniProt P22629 37-163, limits assumed).
T1 construct: Commercial immobilized streptavidin; the construct is not described; also called Sv; immobilized streptavidin
T1 sequence (P22629 37-163 limits assumed): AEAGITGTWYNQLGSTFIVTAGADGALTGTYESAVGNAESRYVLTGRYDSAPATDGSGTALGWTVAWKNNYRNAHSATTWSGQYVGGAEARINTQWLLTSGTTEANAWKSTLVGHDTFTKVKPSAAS
Description: phage ELISA, phage bound to immobilized streptavidin. (In general: ELISA stands for enzyme-linked immunosorbent assay.)
As to B1, the binding result is “binds”.
Same read-out and setting: under B2 stands “binds”; under B3, “binds”; under B4, “binds”.
Same read-out and setting: under B5 stands “binds”; under B6, “binds”.

A further test deals with recombinant light chain enterokinase (Novagen, Madison, Wis.) (UniProt P98072 801-1035). The test can be described thus: cell-based or functional assay.
Sequence of recombinant light chain enterokinase (Novagen, Madison, Wis.) (P98072 801-1035 limits assumed): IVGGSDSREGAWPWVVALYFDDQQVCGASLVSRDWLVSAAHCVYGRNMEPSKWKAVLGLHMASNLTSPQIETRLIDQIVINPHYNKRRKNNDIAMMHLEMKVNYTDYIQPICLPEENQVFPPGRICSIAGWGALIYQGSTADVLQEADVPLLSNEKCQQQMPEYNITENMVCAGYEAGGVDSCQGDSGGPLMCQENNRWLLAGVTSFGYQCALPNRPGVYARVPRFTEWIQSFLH
Take B7: the “test peptide rate (Va), in competition with reference peptide GDDDDK-βNA” value (“test peptide rate (Va), in competition” for short) is 0.028.
For B8, the “test peptide rate (Va), in competition” value was found to be 0.18.
With B9, the “test peptide rate (Va), in competition” value stood at 0.038.
